Assay results published in patent US20170313769A1 (Pfizer, published 2017).

How the values were obtained:
[1] = biological target: T1, Human IFNβ (mature human interferon beta) (human, UniProt P01574 22-187); experiment: cell-based or functional assay
Cynomolgus monkey IFNβ = biological target: T2, Cynomolgus monkey IFNβ (cynomolgus monkey, UniProt O77812 22-187); experiment: plate ELISA, cynomolgus IFNβ coated at 5 µg/mL, antibody titrated from 30 nM
T2 construct: also called cyno-IFNβ

[2] = biological target: T1, Human IFNβ (mature human interferon …); experiment: ELISA (summary value); human IFNβ
Rat IFNβ = biological target: T3, Rat IFNβ (rat, UniProt P70499 22-184); experiment: plate ELISA, rat IFNβ coated at 5 µg/mL
T3 sequence: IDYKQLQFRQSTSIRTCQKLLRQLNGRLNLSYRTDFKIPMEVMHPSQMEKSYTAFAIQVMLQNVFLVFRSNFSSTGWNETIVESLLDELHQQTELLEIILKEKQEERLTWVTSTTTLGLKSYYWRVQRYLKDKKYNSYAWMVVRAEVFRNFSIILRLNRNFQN

CID1285 = biological target: T4, CID1285 (human (IFNβ with IFNα sequence inserted), UniProt P01574 22-187); experiment: cell-based or functional assay
T4 chain: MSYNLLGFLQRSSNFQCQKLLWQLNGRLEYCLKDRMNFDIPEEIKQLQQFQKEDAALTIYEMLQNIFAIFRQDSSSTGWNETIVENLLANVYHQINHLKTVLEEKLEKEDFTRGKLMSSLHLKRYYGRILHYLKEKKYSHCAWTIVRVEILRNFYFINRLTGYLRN

[3] = biological target: T1, Human IFNβ (mature human interferon …); experiment: Octet (BLI) response rank; method not described

T2 sequence (O77812 22-187): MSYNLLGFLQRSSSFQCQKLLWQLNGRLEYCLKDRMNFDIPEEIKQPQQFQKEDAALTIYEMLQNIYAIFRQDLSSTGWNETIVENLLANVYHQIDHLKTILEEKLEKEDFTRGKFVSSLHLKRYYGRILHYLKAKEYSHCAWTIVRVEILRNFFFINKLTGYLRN

IC50 (pM) ISRE Neutralization [1]: 2 pM | IC50 (pM) pSTAT1 Inhibition [1]: 4 pM | EC50 (Cynomolgus monkey IFNβ): 0.0247 nM | EC50 [2]: 0.0153 nM | binding result (Rat IFNβ): no binding | IC50 (nM), neutralization of type I IFN-induced STAT1 phosphorylation (CID1285): 0.4 nM | Response rank (Octet) [3]: 1 rank
B1: CTI-AF1 (antibody, human IgG1, kappa, V domains shown)
VH: QVQLVQSGAEVKKPGSSVKVSCKASGYTFSRYWMHWVRQAPGQGLEWMGHIDPSDSYTYYNQKFKGRVTITADESTSTAYMELSSLRSEDTAVYYCARWDYGNLLFEYWGQGTLVTVSS
VL: DIQMTQSPSSLSASVGDRVTITCRTSQDIGNYLNWYQQKPGKAFKLLIYSTSRLHSGVPSRFSGSGSGTDFTLTISSLQPEDFATYYCQQGIILPITFGGGTKVEIKR
notes: Humanized IgG1; The C-terminal K of the heavy chain is printed as optional, '(K)'; also called anti-IFNβ antibody; humanized IgG1 antibody against interferon beta
